These results are taken from article PMC2192386.

Assay [1] addresses N-RAP-IB (the region of N-RAP between the LIM domain and the nebulin-like repeats). Kind of assay: ELISA. Background: In an ELISA, binding on a coated surface is turned into a signal by an enzyme label.
In assay [2] the target is N-RAP-NH (the NH2-terminal half of N-RAP including the LIM domain). Kind of assay: ELISA.

B1: muscle LIM protein (MLP), rat, histidine-tagged, full length (natural protein)
chain: MPNWGGGAKCGACDKTVYHAEEIQCNGRSFHKTCFHCMACRKALDSTTVAAHESEIYCKVCYGRKYGPKGIGFGQGAGCLSTDTGEHLGLQFQQSPKPARAATTSNPSKFSAKFGESEKCPRCGKSVYAAEKVMGGGKPWHKTCFPCAICGKSLESTNVTDKDGELYCKVCYAKNFGPTGIGFGGLTHQVEKKE
Consider B1, for which the figures for the dissociation constant Kd in assay [1] and in assay [2] were 17 nM and 8 nM, respectively.
